According to paper PMC9182133, “Cholesterol Dependent Activity of the Adenosine A2A Receptor Is Modulated via the Cholesterol Consensus Motif” (Molecules, 2022):

Key:
[1] = target: T1, wild-type human adenosine A2A receptor with rho-1d4 tag (pITy4-A2AR-1d4) (human, UniProt P29274 1-412); experiment: SPR; His6-Gαs (1 µM injected) captured on a high-capacity Ni-NTA chip; purified receptor injected at 296 (legend: 267), 445 or 667 nM for 3 min, dissociation 5 min; 20 °C, 25 µL/min; 50 mM Tris-HCl pH 8, 0.1% DDM, 0.1% CHAPS, 0.02% CHS; channel with denatured Gαs subtracted; 1-1 binding model, fits of three biological replicates averaged; details: both partners purified
T1 construct: adenosine A2A receptor, human, wild type; the abstract calls it full length; also called WT A2AR; source: S. cerevisiae BJ5464 (pITy4, galactose induced), purified (Rho-1d4 resin, eluted with Rho-1d4 peptide) in DDM/CHAPS/CHS
T1 sequence (P29274 whole entry): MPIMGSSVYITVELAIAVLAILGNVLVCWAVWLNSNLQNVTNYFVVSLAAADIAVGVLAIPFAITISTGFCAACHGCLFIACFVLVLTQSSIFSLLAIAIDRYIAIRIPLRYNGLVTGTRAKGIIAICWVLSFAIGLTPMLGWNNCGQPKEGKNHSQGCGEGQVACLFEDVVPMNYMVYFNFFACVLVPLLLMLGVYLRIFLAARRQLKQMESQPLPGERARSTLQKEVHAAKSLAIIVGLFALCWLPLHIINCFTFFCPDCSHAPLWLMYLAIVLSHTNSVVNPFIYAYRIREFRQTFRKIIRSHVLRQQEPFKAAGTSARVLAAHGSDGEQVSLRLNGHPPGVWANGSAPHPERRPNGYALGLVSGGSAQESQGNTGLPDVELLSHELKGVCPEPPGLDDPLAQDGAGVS

[2] = target: T2, A2AR S47A variant with rho-1d4 tag (human, UniProt P29274 1-412, S47A); experiment: as above; details: both partners purified
T2 construct: adenosine A2A receptor, human, with S47A (Ballesteros-Weinstein 2.45) in the cholesterol consensus motif; source: S. cerevisiae BJ5464 (pITy4, galactose induced), purified (Rho-1d4 resin, eluted with Rho-1d4 peptide) in DDM/CHAPS/CHS
T2 sequence (P29274 whole entry S47A): as the sequence (P29274 whole entry) above, with S47A counted along it

B1: Gαs protein (pET15b-Gαs, His6 tagged) (natural protein, UniProt P63092 1-394, looked up)
chain: MGCLGNSKTEDQRNEEKAQREANKKIEKQLQKDKQVYRATHRLLLLGAGESGKSTIVKQMRILHVNGFNGEGGEEDPQAARSNSDGEKATKVQDIKNNLKEAIETIVAAMSNLVPPVELANPENQFRVDYILSVMNVPDFDFPPEFYEHAKALWEDEGVRACYERSNEYQLIDCAQYFLDKIDVIKQADYVPSDQDLLRCRVLTSGIFETKFQVDKVNFHMFDVGGQRDERRKWIQCFNDVTAIIFVVASSSYNMVIREDNQTNRLQEALNLFKSIWNNRWLRTISVILFLNKQDLLAEKVLAGKSKIEDYFPEFARYTTPEDATPEPGEDPRVTRAKYFIRDEFLRISTASGDGRHYCYPHFTCAVDTENIRRVFNDCRDIIQRMHLRQYELL
notes: G protein alpha-s subunit; also called G protein; source: E. coli Rosetta (DE3), purified (Ni-NTA resin)
- Kd [1]: 74 nM
- koff [1]: 0.00066 s⁻¹
- kon [1]: 12700 ± 649 M⁻¹ s⁻¹
- Kd [2]: 146 nM
- koff [2]: 0.00122 s⁻¹
- kon [2]: 18700 ± 2900 M⁻¹ s⁻¹
